Results from patent US20170253656A1.

Molecular target: CD74 on CD74 positive SU-DHL-6 cells, P04233
Assay: cell-based or functional assay

Chain of CD74 on CD74 positive SU-DHL-6 cells, P04233 (P04233 whole entry): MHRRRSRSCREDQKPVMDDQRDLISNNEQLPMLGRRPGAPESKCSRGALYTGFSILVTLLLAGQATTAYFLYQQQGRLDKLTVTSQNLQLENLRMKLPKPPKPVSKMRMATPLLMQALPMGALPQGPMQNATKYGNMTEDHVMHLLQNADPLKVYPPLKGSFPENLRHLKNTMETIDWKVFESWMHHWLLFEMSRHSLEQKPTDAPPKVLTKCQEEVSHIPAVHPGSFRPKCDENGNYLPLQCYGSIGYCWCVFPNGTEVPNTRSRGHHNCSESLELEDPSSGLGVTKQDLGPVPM

Binder | 2nd ADC Cell Killing IC50 [pM]
1193-B06 (scFv) scFv: EVQLLESGGGLVQPGGSLRLSCAASGFTFTGNWMSWVRQAPGKGLEWVGIIYGTSGATYYADSVKGRFTISRDNSKNTLYLQMNSLRAEDTAVYYCAKPSMSGSRGFDYWGQGTLVTVSSGGGGSGGGGSGGGGSEIVLTQSPGTLSLSPGERATLSCRAGQSVSSSYLAWYQQKPGQAPRLLIYGASSRATGIPDRFSGSGSGTDFTLTISRLEPEDFAVYYCQQHYTTPPTFGQGTKVEIK | 10300
1251-A03 heavy chain paired with VL SEQ ID NO: 272 (antibody, V domains shown) VH: QVQLVESGGGVVQPGRSLRLSCAASGFAFSDHGMHWVRQAPDKGLEWVAVIWYDGSHKIYADSVKGRFTISRDNSKNTLYLQMNSLRAEDTAVYYCARGGSLAGGAVYGTDVWGQGTTVTVSS VL: DIQMTQSPSSLSASVGDRVTITCRASQGISSWLAWYQQKPEKAPKSLIYAASSLQSGVPSRFSGSGSGTDFTLTISSLQPEDFATYYCQQYNSYPLTFGGGTKVEIK | 10
1251-A06 heavy chain paired with VL SEQ ID NO: 272 (antibody, V domains shown) VH: QVQLVESGGGVVQPGRSLRLSCAASGFDFSSYGMHWVRQAPDKGLEWVAVIWDDGSDRYYADSVKGRFTISRDNSKNTLYLQMNSLRAEDTAVYYCARGGTRVLGAIHGTDVWGQGTTVTVSS VL: DIQMTQSPSSLSASVGDRVTITCRASQGISSWLAWYQQKPEKAPKSLIYAASSLQSGVPSRFSGSGSGTDFTLTISSLQPEDFATYYCQQYNSYPLTFGGGTKVEIK | 0.2
1251-B08 heavy chain paired with VL SEQ ID NO: 272 (antibody, V domains shown) VH: QVQLVESGGGVVQPGRSLRLSCAASGFNFSDYGMHWVRQAPDKGLEWVAVIWYDGSISYYADSVKGRFTISRDNSKNTLYLQMNSLRAEDTAVYYCARGGTVEHGAVYGTDVWGQGATVTVSS VL: DIQMTQSPSSLSASVGDRVTITCRASQGISSWLAWYQQKPEKAPKSLIYAASSLQSGVPSRFSGSGSGTDFTLTISSLQPEDFATYYCQQYNSYPLTFGGGTKVEIK | 7
1251-B09 heavy chain paired with VL SEQ ID NO: 272 (antibody, V domains shown) VH: QVQLVESGGGVVQPGRSLRLSCAASGFNFSDYGMHWVRQAPDKGLEWVAVTWYDGSREYYADSVKGRFTISRDNSKNTLYLQMNSLRAEDTAVYYCARGGTLVHGALYGNDVWGQGTTVTVSS VL: DIQMTQSPSSLSASVGDRVTITCRASQGISSWLAWYQQKPEKAPKSLIYAASSLQSGVPSRFSGSGSGTDFTLTISSLQPEDFATYYCQQYNSYPLTFGGGTKVEIK | 7
1251-C03 heavy chain paired with VL SEQ ID NO: 272 (antibody, V domains shown) VH: QVQLVESGGGVVQPGRSLRLSCAASGFNFSSYGMHWVRQAPDKGLEWVAVIWYDGSIKNYADSVKGRFTISRDNSKNTLYLQMNSLRAEDTAVYYCARGGALMRGEFSGHDVWGQGTTVTVSS VL: DIQMTQSPSSLSASVGDRVTITCRASQGISSWLAWYQQKPEKAPKSLIYAASSLQSGVPSRFSGSGSGTDFTLTISSLQPEDFATYYCQQYNSYPLTFGGGTKVEIK | 50
1251-D02 heavy chain paired with VL SEQ ID NO: 272 (antibody, V domains shown) VH: QVQLVESGGGVVQPGRSLRLSCAASGFSFASHGMHWVRQAPDKGLEWVAVIWDDGSDRYYADSVKGRFTISRDNSKNTLYLQMNSLRAEDTAVYYCARGGTRVLGAIHGTDVWGQGTTVTVSS VL: DIQMTQSPSSLSASVGDRVTITCRASQGISSWLAWYQQKPEKAPKSLIYAASSLQSGVPSRFSGSGSGTDFTLTISSLQPEDFATYYCQQYNSYPLTFGGGTKVEIK | 14
1251-D06 heavy chain paired with VL SEQ ID NO: 272 (antibody, V domains shown) VH: QVQLVESGGGVVQPGRSLRLSCAASGFSFGSYGMHWVRQAPDKGLEWVAVVWYDGSKTIYADSVKGRFTISRDNSKNTLYLQMNSLRAEDTAVYYCARGGTLVRGAVYGLDVWGQGTTVTVSS VL: DIQMTQSPSSLSASVGDRVTITCRASQGISSWLAWYQQKPEKAPKSLIYAASSLQSGVPSRFSGSGSGTDFTLTISSLQPEDFATYYCQQYNSYPLTFGGGTKVEIK | 4
1251-D09 heavy chain paired with VL SEQ ID NO: 272 (antibody, V domains shown) VH: QVQLVESGGGVVQPGRSLRLSCAASGFSFSSYGMHWVRQAPDKGLEWVAVIWYDASIRKYAGSVKGRFTISRDNSKNTLYLQMNSLRAEDTAVYYCARGGTVERGAIYGTDVWGQGTTVTVSS VL: DIQMTQSPSSLSASVGDRVTITCRASQGISSWLAWYQQKPEKAPKSLIYAASSLQSGVPSRFSGSGSGTDFTLTISSLQPEDFATYYCQQYNSYPLTFGGGTKVEIK | 7
1251-E06 heavy chain paired with VL SEQ ID NO: 272 (antibody, V domains shown) VH: QVQLVESGGGVVQPGRSLRLSCAASGFTFDSYGMHWVRQAPDKGLEWVAVIWYDGSNKVYADSVKGRFTISRDNSKNTLYLQMNSLRAEDTAVYYCARGGMVGQGAMFGLDVWGQGTTVTVSS VL: DIQMTQSPSSLSASVGDRVTITCRASQGISSWLAWYQQKPEKAPKSLIYAASSLQSGVPSRFSGSGSGTDFTLTISSLQPEDFATYYCQQYNSYPLTFGGGTKVEIK | 15
1251-F06 heavy chain paired with VL SEQ ID NO: 272 (antibody, V domains shown) VH: QVQLVESGGGVVQPGRSLRLSCAASGFTFSSFGMHWVRQAPDKGLEWVAVIWYDGSNEYYADSVKGRFTISRDNSKNTLYLQMNSLRAEDTAVYYCARGGSLVTRGVYGLDVWGQGTTVTVSS VL: DIQMTQSPSSLSASVGDRVTITCRASQGISSWLAWYQQKPEKAPKSLIYAASSLQSGVPSRFSGSGSGTDFTLTISSLQPEDFATYYCQQYNSYPLTFGGGTKVEIK | 17
1193-C08 (scFv) scFv: EVQLLESGGGLVQPGGSLRLSCAASGFTFNNNWMSWVRQAPGKGLEWVGIINGDDGYTYYADRVKGRFTIIRDNSKNTLYLQMNSLRAEDTAVYYCAKVALGRPRRFDYWGQGTLVTVSSGGGGSGGGGSGGGGSEIVLTQSPGTLSLTPGERATLSCRASQSVSSNYLAWYQQKPGQAPRLLIYGASSRATGIPDRFSGSGSGTDFTLTISRLEPEDFAMYYCQQHYTTPPTFGQGTKVEIK | 8660
1251-F07 heavy chain paired with VL SEQ ID NO: 272 (antibody, V domains shown) VH: QVQLVESGGGVVQPGRSLRLSCAASGFTFSSHGMHWVRQAPDKGLEWVAVIWDDGSNEVYADSVKGRFTISRDNSKNTLYLQMNSLRAEDTAVYYCARGGTRIRGLRYGTDVWGQGTTVTVSS VL: DIQMTQSPSSLSASVGDRVTITCRASQGISSWLAWYQQKPEKAPKSLIYAASSLQSGVPSRFSGSGSGTDFTLTISSLQPEDFATYYCQQYNSYPLTFGGGTKVEIK | 9
1251-G02 heavy chain paired with VL SEQ ID NO: 272 (antibody, V domains shown) VH: QVQLVESGGGVVQPGRSLRLSCAASGFTFSSYGMHWVRQAPDKGLEWVAVIWHDGSKDYYADSVKGRFTISRDNSKNTLYLQMNSLRAEDTAVYYCARGGQLDHGAIYGLDVWGQGTTVTVSS VL: DIQMTQSPSSLSASVGDRVTITCRASQGISSWLAWYQQKPEKAPKSLIYAASSLQSGVPSRFSGSGSGTDFTLTISSLQPEDFATYYCQQYNSYPLTFGGGTKVEIK | 13
1337-A04 light chain paired with VH 1251-A06 (SEQ ID NO: 236) (Fab, V domains shown) VH: QVQLVESGGGVVQPGRSLRLSCAASGFDFSSYGMHWVRQAPDKGLEWVAVIWDDGSDRYYADSVKGRFTISRDNSKNTLYLQMNSLRAEDTAVYYCARGGTRVLGAIHGTDVWGQGTTVTVSS VL: DIQMTQSPSSLSASVGDRVTITCRASQDIGRWVAWYQQKPEKAPKSLIYGASSLQSGVPSRFSGSGSGTDFTLTISSLQPEDFATYYCQQYNTYPLTFGGGTKVEIK | 4
1337-A05 light chain paired with VH 1251-A06 (SEQ ID NO: 236) (Fab, V domains shown) VH: QVQLVESGGGVVQPGRSLRLSCAASGFDFSSYGMHWVRQAPDKGLEWVAVIWDDGSDRYYADSVKGRFTISRDNSKNTLYLQMNSLRAEDTAVYYCARGGTRVLGAIHGTDVWGQGTTVTVSS VL: DIQMTQSPSSLSASVGDRVTITCRASQGIGRWVAWYQQKPEKAPKSLIYGADRLQSGVPSRFSGSGSGTDFTLTISSLQPEDFATYYCQQYNSYPLTFGGGTKVEIK | 4
1337-A06 light chain paired with VH 1251-A06 (SEQ ID NO: 236) (Fab, V domains shown) VH: QVQLVESGGGVVQPGRSLRLSCAASGFDFSSYGMHWVRQAPDKGLEWVAVIWDDGSDRYYADSVKGRFTISRDNSKNTLYLQMNSLRAEDTAVYYCARGGTRVLGAIHGTDVWGQGTTVTVSS VL: DIQMTQSPSSLSASVGDRVTITCRASQDIGSWVAWYQQKPEKAPKSLIYGADRLQSGVPSRFSGSGSGTDFTLTISSLQPEDFATYYCQQYNSYPLTFGGGTKVEIK | 4
1337-A07 light chain paired with VH 1251-A06 (SEQ ID NO: 236) (Fab, V domains shown) VH: QVQLVESGGGVVQPGRSLRLSCAASGFDFSSYGMHWVRQAPDKGLEWVAVIWDDGSDRYYADSVKGRFTISRDNSKNTLYLQMNSLRAEDTAVYYCARGGTRVLGAIHGTDVWGQGTTVTVSS VL: DIQMTQSPSSLSASVGDRVTITCRASQGISSWVAWYQQKPEKAPKSLIYGASRLQSGVPSRFSGSGSGTDFTLTISSLQPEDFATYYCQQYHTYPLTFGGGTKVEIK | 4
1193-E06b (scFv) scFv: EVQLLESGGGLVQPGGSLRLSCAASGFTFNNTDMSWVRQAPGKGLEWVGIINGSGGATNYADSVKGRFTISRDNSKNTLYLQMNSLRAEDTAVYYCAKFENEWEVSMDYWGQGTLVTVSSGGGGSGGGGSGGGGSEIVLTQSPGTLSLSPGERATLSCRASQSVSSSYLAWYQQKPGQAPRLLIYGASSRATGIPDRFSGSGSGTDFTLTISRLEPEDFAVYYCQQHYTTPPTFGQGTKVEIK | 8670
1337-A08 light chain paired with VH 1251-A06 (SEQ ID NO: 236) (Fab, V domains shown) VH: QVQLVESGGGVVQPGRSLRLSCAASGFDFSSYGMHWVRQAPDKGLEWVAVIWDDGSDRYYADSVKGRFTISRDNSKNTLYLQMNSLRAEDTAVYYCARGGTRVLGAIHGTDVWGQGTTVTVSS VL: DIQMTQSPSSLSASVGDRVTITCRASQDIGSWVAWYQQKPEKAPKSLIYASDSLQSGVPSRFSGSGSGTDFTLTISSLQPEDFATYYCQQYNSYPLTFGGGTKVEIK | 7
1337-A09 light chain paired with VH 1251-A06 (SEQ ID NO: 236) (Fab, V domains shown) VH: QVQLVESGGGVVQPGRSLRLSCAASGFDFSSYGMHWVRQAPDKGLEWVAVIWDDGSDRYYADSVKGRFTISRDNSKNTLYLQMNSLRAEDTAVYYCARGGTRVLGAIHGTDVWGQGTTVTVSS VL: DIQMTQSPSSLSASVGDRVTITCRASQGIGSWLAWYQQKPEKAPKSLIYAADRLQSGVPSRFSGSGSGTDFTLTISSLQPEDFATYYCQQYHTYPLTFGGGTKVEIK | 4
